This data set deals with the molecule itself. As to the kind of experiment: crystal structure.

B1: betaine aldehyde dehydrogenase from Burkholderia pseudomallei (enzyme)
chain: MSVYGLQRLYIAGAHADATSGKTFDTFDPATGELLARVQQASADDVDRAVASAREGQREWAAMTAMQRSRILRRAVELLRERNDALAELEMRDTGKPIAETRAVDIVTGADVIEYYAGLATAIEGLQVPLRPESFVYTRREPLGVCAGIGAWNYPIQIACWKSAPALAAGNAMIFKPSEVTPLSALKLAEIYTEAGVPAGVFNVVQGDGSVGALLSAHPGIAKVSFTGGVETGKKVMSLAGASSLKEVTMELGGKSPLIVFDDADLDRAADIAVTANFFSAGQVCTNGTRVFVQQAVKDAFVERVLARVARIRVGKPSDSDTNFGPLASAAQLDKVLGYIDSGKAEGAKLLAGGARLVNDHFASGQYVAPTVFGDCRDDMRIVREEIFGPVMSILSFETEDEAIARANATDYGLAAGVVTENLSRAHRAIHRLEAGICWINTWGESPAEMPVGGYKQSGVGRENGITTLEHYTRIKSVQVELGRYQPVF
notes: also called BpBADH; BpBADH-His; not shown: His6, C-terminal, kept
With B1, the binding result is “binds”.

Source of the values: publication PMC8805214, “Crystal structure of betaine aldehyde dehydrogenase from Burkholderia pseudomallei” (Acta Crystallographica. Section F, Structural Biology …, 2022).
